Experimental data as given in US20200010554A1 (TUSK THERAPEUTICS, published 2020).
Where two headings read alike, the source gives them in different places.

Tests used:
[1] = target: T1, human CD25 expressed on cells (Karpas 299, SU-DHL-1, SR-786, in vitro differentiated Treg cells, PBMC) (human, UniProt P01589 22-272); assay: flow cytometry titration on Karpas 299 cells, AF647 secondary antibody [Figure 68 continued]
T1 construct: also called CD25 expressing cells
T1 sequence: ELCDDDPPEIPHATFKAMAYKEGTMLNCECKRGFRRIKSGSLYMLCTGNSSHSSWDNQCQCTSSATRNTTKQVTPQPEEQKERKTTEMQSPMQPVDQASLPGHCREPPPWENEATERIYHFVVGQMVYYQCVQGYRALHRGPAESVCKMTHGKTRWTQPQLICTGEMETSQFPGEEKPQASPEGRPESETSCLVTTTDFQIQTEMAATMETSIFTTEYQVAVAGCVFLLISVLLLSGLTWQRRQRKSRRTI

[2] = target: T1, human CD25 expressed on cells (Karpas …); assay: as above; remark: listed apart in the source
[3] = target: T1, human CD25 expressed on cells (Karpas …); assay: flow cytometry on Karpas 299 cells, MFI AF647
[4] = target: T1, human CD25 expressed on cells (Karpas …); assay: flow cytometry on SR-786 cells, Geo Mean Intensity
[5] = target: T1, human CD25 expressed on cells (Karpas …); assay: flow cytometry on SU-DHL-1 cells, Geo Mean Intensity
[6] = target: T2, recombinant human CD25 his tagged (human, UniProt P01589 22-213, limits assumed); assay: SPR, Biacore 2000: antibody captured on an anti-human antibody CM-5 chip, rhCD25 his tagged as analyte, 1:1 Langmuir fit
T2 construct: also called rhCD25 his tagged; rhCD25; not shown: his tag
T2 sequence: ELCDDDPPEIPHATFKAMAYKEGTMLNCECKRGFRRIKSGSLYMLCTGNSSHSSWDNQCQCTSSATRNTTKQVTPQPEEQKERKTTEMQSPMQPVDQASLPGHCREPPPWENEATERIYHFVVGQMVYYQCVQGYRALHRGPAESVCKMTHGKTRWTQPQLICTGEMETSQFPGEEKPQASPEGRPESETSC

[7] = target: T1, human CD25 expressed on cells (Karpas …); assay: flow cytometry on human in vitro differentiated Treg cells, MFI AF647
[8] = target: T1, human CD25 expressed on cells (Karpas …); assay: flow cytometry on Karpas 299 cells, MFI AF647; remark: listed apart in the source
[9] = target: T2, recombinant human CD25 his tagged; assay: SPR, Biacore 2000: antibody captured on an anti-human antibody CM-5 chip, rhCD25 his tagged as analyte, 1:1 Langmuir fit; remark: listed apart in the source
[10] = target: T2, recombinant human CD25 his tagged; assay: biolayer interferometry, Octet Red 96: antibody on AHC biosensor, rhCD25 his tagged 50 nM to 0.54 nM, global 1:1 fit [F]
[11] = target: T1, human CD25 expressed on cells (Karpas …); assay: flow cytometry titration on Karpas 299 cells, AF647 secondary antibody
[12] = target: T1, human CD25 expressed on cells (Karpas …); assay: as above; remark: listed apart in the source
[13] = target: T1, human CD25 expressed on cells (Karpas …); assay: as above; remark: listed apart in the source
[14] = target: T3, recombinant mouse CD25 (mouse, UniProt P01590 22-236, biotinylated in FIG. 1A (site not stated)); assay: BLI Octet RED384, IgG on AHQ sensors, 100 nM antigen, 1:1 model
T3 construct: also called biotinylated mouse CD25
T3 sequence (looked up): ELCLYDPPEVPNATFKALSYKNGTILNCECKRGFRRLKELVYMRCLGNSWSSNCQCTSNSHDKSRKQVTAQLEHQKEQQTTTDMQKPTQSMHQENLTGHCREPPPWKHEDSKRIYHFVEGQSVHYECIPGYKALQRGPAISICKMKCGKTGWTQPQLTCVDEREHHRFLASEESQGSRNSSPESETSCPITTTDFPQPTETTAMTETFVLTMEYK

[15] = target: T4, mouse CD25 expressed on cells (CHO cells expressing mouse CD25; mouse T cells) (mouse, UniProt P01590 22-268); assay: flow cytometry on CHO cells expressing mouse CD25, MFI AF647
T4 construct: whole, on cells; also called CHO-mCD25; cellular expressed mCD25
T4 sequence (looked up): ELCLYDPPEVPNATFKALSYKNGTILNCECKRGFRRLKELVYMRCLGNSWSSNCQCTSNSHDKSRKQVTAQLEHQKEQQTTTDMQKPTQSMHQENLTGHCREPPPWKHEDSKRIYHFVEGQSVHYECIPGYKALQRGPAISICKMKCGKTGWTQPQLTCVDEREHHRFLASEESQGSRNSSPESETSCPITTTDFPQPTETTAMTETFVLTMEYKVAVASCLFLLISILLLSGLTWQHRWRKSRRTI

[16] = target: T5, recombinant mouse CD25 his tagged (mouse, UniProt P01590 22-236, limits assumed); assay: SPR Biacore 2000, antibody captured by anti-mouse antibody on CM-5 chip, recombinant mouse CD25 his tagged as analyte, bivalent analyte model
T5 construct: also called rmCD25 his tagged; mCD25; not shown: his tag
T5 sequence (looked up): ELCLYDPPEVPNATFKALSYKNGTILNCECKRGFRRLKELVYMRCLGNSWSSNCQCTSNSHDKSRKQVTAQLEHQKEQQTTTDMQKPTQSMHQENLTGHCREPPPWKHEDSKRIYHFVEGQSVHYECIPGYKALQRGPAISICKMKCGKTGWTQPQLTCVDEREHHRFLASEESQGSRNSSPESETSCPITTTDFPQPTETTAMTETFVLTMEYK

B1: Antibody 20 (antibody, V domains shown)
VH: QVQLVESGGGVVQPGGSLRLSCAVSGFSLTSYGIQWVRQAPGKGLEWVSVIWAGGSTNYNSALMSRFTISKDNSKSTLYLQMNSLRAEDTAVYYCARAYGYDGSWLAYWGQGTLVTVSS
VL: DIQMTQSPSSLSASVGDRVTITCRASSSVSYMHWYQQKPGKAPKPLIFATSNLASGVPSRFSGSGSGTDYTLTISSLQPEDFATYYCQQWSSNPPTFGGGTKLEIK
notes: also called Ab20
EC50 (read off the curve) [1]: ~0.2 µg/mL

B2: Antibody 21 (antibody, V domains shown)
VH: QVQLVESGGGVVQPGGSLRLSCAVSGFSLTSYGIQWVRQAPGKGLEWVSVIWAGGSTNYNSALMSRFTISKDNSKSTLYLQMNSLRAEDTAVYYCARAYGYDGSWLAYWGQGTLVTVSS
VL: QIQLTQSPSSLSASVGDRVTITCRASSSVSYMHWYQQKPGKSPKPLIFATSNLASGVPSRFSGSGSGTDYTLTISSLQPEDFATYYCQQWSSNPPTFGGGTKLEIK
notes: also called Ab21
EC50 (read off the curve) [2]: ~0.2 µg/mL

B3: chimeric 7G7B6 (antibody, V domains shown)
VH: EVQLVESGGDLVQPRGSLKLSCAASGFTFSSYGMSWVRQTPDKRLELVATINGYGDTTYYPDSVKGRFTISRDNAKNTLYLQMSSLKSEDTAMYFCARDRDYGNSYYYALDYWGQGTSVTVSS
VL: QIVLSQSPAILSASPGERVTMTCRASSSVSFMHWLQQKPGSSPKPWIYATSNLASGVSARFSGSGSGTSYSLTITRVEAEDAATYYCQQWSSNPPAFGGGTKLEIK
notes: also called 7G7B6 chimeric antibody; 7g7B6ch
EC50 (read off the curve) [3]: ~1 µg/mL | EC50 (read off the curve) [4]: ~0.9 µg/mL | EC50 (read off the curve) [5]: ~0.8 µg/mL | Kd [6]: 6.7 nM

B4: 7G7B6, mouse IgG2a anti-human CD25 antibody (antibody, V domains shown)
VH: EVQLVESGGDLVQPRGSLKLSCAASGFTFSSYGMSWVRQTPDKRLELVATINGYGDTTYYPDSVKGRFTISRDNAKNTLYLQMSSLKSEDTAMYFCARDRDYGNSYYYALDYWGQGTSVTVSS
VL: QIVLSQSPAILSASPGERVTMTCRASSSVSFMHWLQQKPGSSPKPWIYATSNLASGVSARFSGSGSGTSYSLTITRVEAEDAATYYCQQWSSNPPAFGGGTKLEIK
notes: also called 7G76B; mouse anti-human CD25 clone 7G7B6
EC50 (read off the curve) [7]: ~1 µg/mL

B5: MA251, mouse anti-human CD25 antibody (antibody, V domains shown)
VH: QVQLKESGPGLVAPSQSLSITCTVSGFSLTSYGIQWVRQPPGKGLEWLGVIWAGGSTNYNSALMSRLSISKDNSKSQVFLKMNSLQTDDTAMYYCARAYGYDGSWLAYWGQGTLVTVSS
VL: QIVLSQSPAILSASPGEKVTMTCRASSSVSYMHWYQQKPGSSPKPWIFATSNLASGVPARFSGSGSGTSYSLTINRVEAEDADTYYCQQWSSNPPTFGGGTKLEIK
notes: Mouse isotype (compared with a mouse IgG1 isotype control)
EC50 (read off the curve) [8]: ~0.1 µg/mL

B6: MA251ch (antibody, V domains shown)
VH: QVQLKESGPGLVAPSQSLSITCTVSGFSLTSYGIQWVRQPPGKGLEWLGVIWAGGSTNYNSALMSRLSISKDNSKSQVFLKMNSLQTDDTAMYYCARAYGYDGSWLAYWGQGTLVTVSS
VL: QIVLSQSPAILSASPGEKVTMTCRASSSVSYMHWYQQKPGSSPKPWIFATSNLASGVPARFSGSGSGTSYSLTINRVEAEDADTYYCQQWSSNPPTFGGGTKLEIK
Kd [9]: 6.6 nM

B7: Antibody 5 (antibody, V domains shown)
VH: EVQLVESGGGLIQPGGSLRLSCAASGFTLDSYGVSWVRQAPGKGLEWVGVTSSGGSAYYADSVKGRFTISRDNSKNTLYLQMNSLRAEDTAVYYCARDRYVYTGGYLYHYGMDLWGQGTLVTVSS
VL: DIQMTQSPSSLSASVGDRVTITCRASQSISDYLAWYQQKPGKVPKLLIYAASTLPFGVPSRFSGSGSGTDFTLTISSLQPEDVATYYCQGTYDSSDWYWAFGGGTKVEI
notes: compared with a human IgG1 isotype control
Kd [10]: 0.8 nM

B8: Antibody 6 (antibody, V domains shown)
VH: EVQLLESGGGLVQPGGSLRLSCAASGFTFSSYGMSWVRQAPGKGLELVSTINGYGDTTYYPDSVKGRFTISRDNSKNTLYLQMNSLRAEDTAVYYCARDRDYGNSYYYALDYWGQGTLVTVSS
VL: EIVLTQSPGTLSLSPGERATLSCRASSSVSFMHWLQQKPGQAPRPLIYATSNLASGIPDRFSGSGSGTDYTLTISRLEPEDFAVYYCQQWSSNPPAFGQGTKLEIK
notes: as for B7
binding result [11]: binds

B9: Antibody 7 (antibody, V domains shown)
VH: EVQLLESGGGLVQPGGSLRLSCAASGFTFSSYGMSWVRQAPGKGLELVSTINGYGDTTYYPDSVKGRFTISRDNSKNTLYLQMNSLRAEDTAVYYCARDRDYGNSYYYALDYWGQGTLVTVSS
VL: QIVLTQSPGTLSLSPGERATLSCRASSSVSFMHWLQQKPGQSPRPLIYATSNLASGIPDRFSGSGSGTDYTLTISRLEPEDFAVYYCQQWSSNPPAFGQGTKLEIK
notes: as for B7
binding result [12]: binds

B10: Antibody 8 (antibody, V domains shown)
VH: EVQLLESGGGLVQPGGSLRLSCAASGFTFSSYGMSWVRQAPGKGLELVSTINGYGDTTYYPDSVKGRFTISRDNAKNTLYLQMNSLRAEDTAVYFCARDRDYGNSYYYALDYWGQGTLVTVSS
VL: EIVLTQSPGTLSLSPGERATLSCRASSSVSFMHWLQQKPGQAPRPLIYATSNLASGIPDRFSGSGSGTDYTLTISRLEPEDFAVYYCQQWSSNPPAFGQGTKLEIK
notes: as for B7
binding result [13]: binds

B11: PC61(mIgG2a), recombinant anti-mouse CD25 antibody from clone PC-61.5.3 with murine IgG2a and kappa constant regions (antibody, V domains shown)
VH: EVQLQQSGAELVRPGTSVKLSCKVSGDTITAYYIHFVKQRPGQGLEWIGRIDPEDDSTEYAEKFKNKATITANTSSNTAHLKYSRLTSEDTATYFCTTDNMGATEFVYWGQGTLVTVSS
VL: QVVLTQPKSVSASLESTVKLSCKLNSGNIGSYYMHWYQQREGRSPTNLIYRDDKRPDGAPDRFSGSIDISSNSAFLTINNVQTEDEAMYFCHSYDGRMYIFGGGTKLTV
notes: also called PC61m2a; aPC61 mIgG2a
Kd [14]: 4.6 nM | EC50 (read off the curve) [15]: ~0.2 µg/mL | Kd [16]: 3.6 nM
